{
  "source": "paper PMC7809502",
  "key": {"[1]": {"molecular_target": "genome-edited CXCL12-HiBiT (human (endogenous in HEK293)) (UniProt P48061)", "experiment": "split reporter (BiFC, NanoBiT); NLuc complementation luminescence: supernatants from HEK293 cells expressing genome-edited CXCL12-HiBiT incubated with increasing concentrations of purified LgBiT; with heparan sulfate (30 ug/mL)"}, "[2]": {"molecular_target": "genome-edited CXCL12-HiBiT (human (endogenous in HEK293)) (UniProt P48061)", "experiment": "split reporter (BiFC, NanoBiT); NLuc complementation luminescence: live HEK293 cells expressing genome-edited CXCL12-HiBiT incubated with increasing concentrations of purified LgBiT; with surfen (10 uM)"}, "[3]": {"molecular_target": "genome-edited CXCL12-HiBiT (human (endogenous in HEK293)) (UniProt P48061)", "experiment": "split reporter (BiFC, NanoBiT); NLuc complementation luminescence: supernatants from HEK293 cells expressing genome-edited CXCL12-HiBiT incubated with increasing concentrations of purified LgBiT; vehicle"}, "[4]": {"molecular_target": "genome-edited CXCL12-HiBiT (human (endogenous in HEK293)) (UniProt P48061)", "experiment": "split reporter (BiFC, NanoBiT); NLuc complementation luminescence: live HEK293 cells expressing genome-edited CXCL12-HiBiT incubated with increasing concentrations of purified LgBiT; vehicle"}, "[5]": {"molecular_target": "genome-edited CXCL12-HiBiT (human (endogenous in HEK293)) (UniProt P48061)", "experiment": "split reporter (BiFC, NanoBiT); NLuc complementation luminescence: supernatants from HEK293 cells expressing genome-edited CXCL12-HiBiT incubated with increasing concentrations of purified LgBiT; with surfen (10 uM)"}, "purified HiBiT": {"molecular_target": "purified HiBiT", "experiment": "split reporter (BiFC, NanoBiT); NLuc complementation luminescence: purified HiBiT (1 nM) incubated with increasing concentrations of purified LgBiT; vehicle"}},
  "data": [
    {"substance": "LgBiT (18 kDa NLuc fragment)", "values": [
      {"measurement": "Kd", "setting": "[1]", "result": 16.1, "unit": "nM"},
      {"measurement": "Kd", "setting": "[2]", "result": 5.93, "unit": "nM"},
      {"measurement": "Kd", "setting": "[3]", "result": 17.5, "unit": "nM"},
      {"measurement": "Kd", "setting": "[4]", "result": 11.6, "unit": "nM"},
      {"measurement": "Kd", "setting": "[5]", "result": 7.46, "unit": "nM"},
      {"measurement": "Kd", "setting": "purified HiBiT", "result": 7.15, "unit": "nM"}
    ]}
  ]
}
